Laboratory results taken from patent publication US20250327097A1, “ORGANISMS PRODUCING LESS CROTONIC ACID” (Global Bioenergies, priority 2021, published 2025).
Changes are numbered by the printed parent chain. Names and notes keep the numbering of the source.

B1: I283T-N285P-N287T-Q290E-S322T-N388M-K394R-C430A-I431N-L432F-L434W-S436N-dG462 (protein)
chain: MFLKSLREQINLLKRQGDLRIINRPVDSYLEAAAIIRRSTETKAPVPLMTNIKGYPGCSIVGGLAALSSNPEYPLSRVAMSLGLSTTASAQSIVQYLIDGLKKTPYLPVEIDSNSAPCKQNILRGEDASLAHFPIPQVHQHDGNRYVNTWGVFIVESPDGQWCNWSIQRVQYLNDRQMIALVFPSQHISDIWEEWVKIGKPMPYALVQGCEPIVPYIAGLPLLERNVNEAEYIGALYGKGIEVVKCETHDLRVPASSEVVIEGYFAITREGVEGPFGEFAGYTPPETSLEPILSITAISWQDDPIWPVVAEGKPVDEYHTCTGIGDAAAIQNVLLTANLPVSFVWVPLYSACHLMIVSINRHWRQTHPDLTSEQLTKKVGDVIHQTRMSIKLPRIVVLDDDVDPADTESLLWALATRIHPERKRYFYESANFPWLNCYSEEERHNRKGKRVIIDALLPENHGAISSFDYAYPDDIKQRVLMHWETDFSHD
B2: I283T-N285P-N287T-Q290E-S322T-N388M-K394R-C430A-L432F-L434W-S436N-S439P-dG462 (protein)
chain: B1 chain with N431I, S439P
B3: N332H-N388M-K394R-C430N-L432F-L434W-S436N (protein)
chain: B1 chain with T283I, P285N, T287N, E290Q, T322S, N332H, A430N, N431I
B4: P284E-N388M-K394R-C430N-L432F-L434W-S436N (protein)
chain: B1 chain with T283I, P284E, P285N, T287N, E290Q, T322S, A430N, N431I
B5: I283T-N285P-N287T-Q290E-S322T-N388M-K394R-C430A-I431P-L432F-L434W-S436N-dG462 (protein)
chain: B1 chain with N431P
B6: D27N-I283T-N285P-N287T-Q290E-S322T-N388M-K394R-C430A-L432F-L434W-S436N-G448T-dG462 (protein)
chain: B1 chain with D27N, N431I, G448T
B7: I283T-N285P-N287T-Q290E-S322T-N388M-K394R-E421F-C430A-L432F-L434W-S436N-dG462 (protein)
chain: B1 chain with E421F, N431I
B8: I283T-N285P-N287T-Q290E-S322T-N388M-K394R-i421aT-C430A-L432F-L434W-S436N-dG462 (protein)
chain: B1 chain with N431I
B9: I283T-N285P-N287T-Q290E-S322T-N388M-K394R-C430A-I431C-L432F-L434W-S436N-dG462 (protein)
chain: B1 chain with N431C
B10: I283T-N285P-N287T-Q290E-S322T-N388M-K394R-C430S-L432F-L434W-S436N-dG462 (protein)
chain: B1 chain with A430S, N431I
B11: I283T-N285P-N287T-Q290E-S322T-N388M-K394R-C430A-L432F-L434W-S436N-C437L-dG462 (protein)
chain: B1 chain with N431I, C437L
B12: I283T-N285P-N287T-Q290E-S322T-N388M-K394R-C430A-L432F-L434W-S436N-Y438W-dG462 (protein)
chain: B1 chain with N431I, Y438W
B13: I283T-N285P-N287T-Q290E-S322T-N388M-K394R-C430A-L432F-L434W-S436N-C437T-dG462 (protein)
chain: B1 chain with N431I, C437T
B14: I283T-N285P-N287T-Q290E-S322T-N388M-K394R-C430A-L432F-L434W-S436N-K447T-dG462 (protein)
chain: B1 chain with N431I, K447T
B15: I283T-N285P-N287T-Q290E-S322T-N388M-K394R-i421aS-C430A-L432F-L434W-S436N-dG462 (protein)
chain: B1 chain with N431I
B16: I283T-N285P-N287T-Q290E-S322T-N388M-K394R-C430A-L432F-L434W-S436N-Y438M-dG462 (protein)
chain: B1 chain with N431I, Y438M
B17: I283T-N285P-N287T-Q290E-S322T-N388M-K394R-C430A-I431T-L432F-L434W-S436N-dG462 (protein)
chain: B1 chain with N431T
B18: I283T-N285P-N287T-Q290E-S322T-N388M-K394R-C430A-L432F-L434W-S436N-C437M-dG462 (protein)
chain: B1 chain with N431I, C437M
B19: I283T-N285P-N287T-Q290E-S322T-N388M-K394R-C430A-L432F-L434W-S436N-C437I-dG462 (protein)
chain: B1 chain with N431I, C437I
B20: I283T-N285P-N287T-Q290E-S322T-N388M-K394R-C430A-L432F-L434W-S436N-G448C-dG462 (protein)
chain: B1 chain with N431I, G448C
B21: I283T-N285P-N287T-Q290E-S322T-N388M-K394R-i421aD-C430A-L432F-L434W-S436N-dG462 (protein)
chain: B1 chain with N431I
B22: I283T-N285P-N287T-Q290E-S322T-N388M-K394R-i421aI-C430A-L432F-L434W-S436N-dG462 (protein)
chain: B1 chain with N431I
B23: I283T-N285P-N287T-Q290E-S322T-N388M-K394R-C430A-I431A-L432F-L434W-S436N-dG462 (protein)
chain: B1 chain with N431A

test system: 3-methylcrotonic acid; assay type: biochemical, Yersinia frederiksenii; design: key: “+” representing a low increase in activity; “++++” representing a high increase in activity

| Molecule | Activity relative to WT |
| --- | --- |
| B1 | ++++ |
| B2 | ++++ |
| B3 | + |
| B4 | + |
| B5 | ++++ |
| B6 | ++++ |
| B7 | ++++ |
| B8 | ++++ |
| B9 | ++++ |
| B10 | ++++ |
| B11 | ++++ |
| B12 | ++++ |
| B13 | ++++ |
| B14 | ++++ |
| B15 | ++++ |
| B16 | ++++ |
| B17 | ++++ |
| B18 | ++++ |
| B19 | ++++ |
| B20 | ++++ |
| B21 | ++++ |
| B22 | ++++ |
| B23 | ++++ |
